We go through 94 variants from the supplement of paper PMC10567573.

The labels stand for the following.
B1: MNAT1 (parent)
chain: SLREYNDFLEEVEEIVFNLTNNVD
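Note: lentivirally expressed fusions sorted by FACS into six bins by GFP to DsRed ratio, PSI derived from sequencing read proportions per bin multiplied by bin number.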

In this data set the parent is B1. Description: protein stability index of a GFP-peptide fusion (GPS, HEK-293T) (PSI 1-6); higher = more stable. The settings on record: c terminus: a fixed tail appended.
As to SLREYNDFLEEVEETVFNLTNNVD, the protein stability index amounted to 3.77.
As for SLREYNDFLEEVEENVFNLTNNVD, the protein stability index was determined as 4.25.
For SLREYNDFLEEVEEFVFNLTNNVD the value was 2.23; for SLREYNDFLEEVEEPVFNLTNNVD, 4.71.
For SLREYNDFLEEVEESVFNLTNNVD, the protein stability index was found to be 3.89.
On to SLREYNDFLEEVEEQVFNLTNNVD, for which the protein stability index came to 3.87.
In the case of SLREYNDFLEEVEECVFNLTNNVD, the protein stability index turned out to be 3.63.
On to SLREYNDFLEEVEEGVFNLTNNVD, for which the protein stability index came out at 4.71.
Regarding SLREYNDFLEEVEEHVFNLTNNVD, the protein stability index was 3.9.
The same measure for SLREYNDFLEEVEERVFNLTNNVD: 3.84; for SLREYNDFLEEVEEKVFNLTNNVD: 4.08.
As for SLREYNDFLEEVEEWVFNLTNNVD, the protein stability index was determined as 2.16.
For the variant SLREYNDFLEEVEEMVFNLTNNVD, the protein stability index is 2.51.
In the case of SLREYNDFLEEVEEVVFNLTNNVD, the protein stability index amounted to 3.31.
The same measure for SLREYNDFLEEVEELVFNLTNNVD: 1.9.
As for SLREYNDFLEEVEEAVFNLTNNVD, the protein stability index came out at 3.78.
For SLREYNDFLEEVEEYVFNLTNNVD the value was 3.35.
For SLREYNDFLEEVEEDVFNLTNNVD the value was 4.82; for SLREYNDFLEEVEEEVFNLTNNVD, 4.66.
Turning to SLREYNDFLEEVFEIVFNLTNNVD, the protein stability index amounted to 2.27.
SLREYNDFLEEVGEIVFNLTNNVD: the protein stability index stood at 2.43.
SLREYNDFLEEVHEIVFNLTNNVD: the protein stability index turned out to be 2.15.
As to SLREYNDFLEEVTEIVFNLTNNVD, the protein stability index amounted to 1.58.
Regarding SLREYNDFLEEVNEIVFNLTNNVD, the protein stability index amounted to 2.37.
As to SLREYNDFLEEVLEIVFNLTNNVD, the protein stability index was 2.5.
For the variant SLREYNDFLEEVDEIVFNLTNNVD, the protein stability index came to 2.87.
For SLREYNDFLEEVSEIVFNLTNNVD, the protein stability index was found to be 1.74.
SLREYNDFLEEVVEIVFNLTNNVD: the protein stability index came out at 2.87.
For the variant SLREYNDFLEEVCEIVFNLTNNVD, the protein stability index came out at 2.34.
As to SLREYNDFLEEVREIVFNLTNNVD, the protein stability index came out at 1.87.
Take SLREYNDFLEEVMEIVFNLTNNVD: the protein stability index is 2.94.
The same measure for SLREYNDFLEEVWEIVFNLTNNVD: 2.52.
Turning to SLREYNDFLEEVYEIVFNLTNNVD, the protein stability index came out at 1.63.
With SLREYNDFLEEVPEIVFNLTNNVD, the protein stability index stood at 3.69.
For SLREYNDFLEEVIEIVFNLTNNVD the value was 2.58; for SLREYNDFLEEVQEIVFNLTNNVD, 1.93; for SLREYNDFLEEVKEIVFNLTNNVD, 2.69.
On to SLREYNDFLEEVAEIVFNLTNNVD, for which the protein stability index worked out at 1.77.
For SLREYNDFLEEVEYIVFNLTNNVD the value was 2.6; for SLREYNDFLEEVECIVFNLTNNVD, 2.24; for SLREYNDFLEEVETIVFNLTNNVD, 1.87.
SLREYNDFLEEVEGIVFNLTNNVD: the protein stability index amounted to 2.34.
On to SLREYNDFLEEVEHIVFNLTNNVD, for which the protein stability index came out at 2.19.
Regarding SLREYNDFLEEVEAIVFNLTNNVD, the protein stability index stood at 1.82.
For SLREYNDFLEEVENIVFNLTNNVD the value was 2.11; for SLREYNDFLEEVERIVFNLTNNVD, 2.15.
For SLREYNDFLEEVESIVFNLTNNVD the value was 2.26; for SLREYNDFLEEVEFIVFNLTNNVD, 2.82.
The same measure for SLREYNDFLEEVEQIVFNLTNNVD: 2.46; for SLREYNDFLEEVEKIVFNLTNNVD: 1.87.
On to SLREYNDFLEEVEWIVFNLTNNVD, for which the protein stability index stood at 1.75.
The same measure for SLREYNDFLEEVELIVFNLTNNVD: 2.12.
For SLREYNDFLEEVEVIVFNLTNNVD the value was 1.61.
For SLREYNDFLEEVEMIVFNLTNNVD the value was 2.22; for SLREYNDFLEEVEDIVFNLTNNVD, 2.88.
For the variant SLREYNDFLEEVEPIVFNLTNNVD, the protein stability index is 3.38.
The same measure for SLREYNDFLEESEEIVFNLTNNVD: 4.5; for SLREYNDFLEEAEEIVFNLTNNVD: 3.22.
The same measure for SLREYNDFLEEQEEIVFNLTNNVD: 4.08; for SLREYNDFLEEIEEIVFNLTNNVD: 2.13.
The same measure for SLREYNDFLEELEEIVFNLTNNVD: 1.09.
Turning to SLREYNDFLEEDEEIVFNLTNNVD, the protein stability index amounted to 4.97.
The same measure for SLREYNDFLEEMEEIVFNLTNNVD: 1.74; for SLREYNDFLEEHEEIVFNLTNNVD: 3.48; for SLREYNDFLEEYEEIVFNLTNNVD: 3.04.
With SLREYNDFLEEKEEIVFNLTNNVD, the protein stability index turned out to be 4.72.
Consider SLREYNDFLEEEEEIVFNLTNNVD, for which the protein stability index came to 4.49.
On to SLREYNDFLEETEEIVFNLTNNVD, for which the protein stability index was 3.48.
The same measure for SLREYNDFLEECEEIVFNLTNNVD: 2.9; for SLREYNDFLEENEEIVFNLTNNVD: 4.83; for SLREYNDFLEEWEEIVFNLTNNVD: 1.87.
For SLREYNDFLEEGEEIVFNLTNNVD the value was 4.16; for SLREYNDFLEEREEIVFNLTNNVD, 4.19; for SLREYNDFLEEFEEIVFNLTNNVD, 1.86.
As for SLREYNDFLEEPEEIVFNLTNNVD, the protein stability index stood at 3.91.
Take SLREYNDFLEEVEEIKFNLTNNVD: the protein stability index came to 2.84.
For the variant SLREYNDFLEEVEEIHFNLTNNVD, the protein stability index stood at 3.86.
For the variant SLREYNDFLEEVEEIFFNLTNNVD, the protein stability index was found to be 1.75.
The same measure for SLREYNDFLEEVEEICFNLTNNVD: 3.
For SLREYNDFLEEVEEIGFNLTNNVD the value was 3.86; for SLREYNDFLEEVEEIEFNLTNNVD, 4.36.
For the variant SLREYNDFLEEVEEIRFNLTNNVD, the protein stability index stood at 3.04.
On to SLREYNDFLEEVEEIDFNLTNNVD, for which the protein stability index came out at 4.87.
The same measure for SLREYNDFLEEVEEIMFNLTNNVD: 2.51.
For SLREYNDFLEEVEEIQFNLTNNVD the value was 3.99; for SLREYNDFLEEVEEILFNLTNNVD, 1.14.
Consider SLREYNDFLEEVEEIAFNLTNNVD, for which the protein stability index was determined as 3.36.
SLREYNDFLEEVEEIIFNLTNNVD: the protein stability index amounted to 2.46.
For SLREYNDFLEEVEEIPFNLTNNVD the value was 4.18; for SLREYNDFLEEVEEINFNLTNNVD, 4.53.
For the variant SLREYNDFLESVEEIVFNLTNNVD, the protein stability index came out at 1.73.
The same measure for SLREYNDFLETVEEIVFNLTNNVD: 1.97; for SLREYNDFLEYVEEIVFNLTNNVD: 2.23; for SLREYNDFLEWVEEIVFNLTNNVD: 2.46.
